Measured values published in PMC8039031.

Molecular target: CREPT (RPRD1B) (UniProt Q9NQG5)
Assay: co-IP
Conditions: reference: wild type; sites Y705

binding against the reference: lost
Substance: STAT3 (from UniProt P40763) Y705F
